Source: PMC7549315

Biological target: GFP-SAPwt (SAP domain of SAF-A) (UniProt Q00839 8-42)
Assay: EMSA

Chain of GFP-SAPwt (SAP domain of SAF-A) (Q00839 8-42): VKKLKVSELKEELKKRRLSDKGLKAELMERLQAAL

B1: AT-rich SAR DNA (dsDNA)
DNA 1: AATTCAGAAAATAATAAAATAAAACTAGCTATTTTATATTTTTTC
DNA 2: GAAAAAATATAAAATAGCTAGTTTTATTTTATTATTTTCTGAATT
Kd: 16.5 µM
